Kd data for 15 molecules are collected here from patent publication US20250368745A1 (published 2025).

Experiment in all cases: BLI, apparent KD
Test [1] deals with T1, human IL-18BP (human, UniProt O95998 31-194).
T1 construct: UniProt printed as 095998; also called hIL-18BP
T1 sequence: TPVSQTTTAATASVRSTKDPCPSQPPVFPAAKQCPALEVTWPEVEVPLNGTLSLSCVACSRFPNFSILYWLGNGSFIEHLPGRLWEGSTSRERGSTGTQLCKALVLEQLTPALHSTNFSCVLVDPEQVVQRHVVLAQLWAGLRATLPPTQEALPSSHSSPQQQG

Test [2] concerns the target T1, human IL-18BP. This is another data set of the same source.
The next test has as its target T2, cynomolgus IL-18BP (cynomolgus monkey).
T2 construct: also called cyno IL-18BP; cyIL-18BP
T2 chain: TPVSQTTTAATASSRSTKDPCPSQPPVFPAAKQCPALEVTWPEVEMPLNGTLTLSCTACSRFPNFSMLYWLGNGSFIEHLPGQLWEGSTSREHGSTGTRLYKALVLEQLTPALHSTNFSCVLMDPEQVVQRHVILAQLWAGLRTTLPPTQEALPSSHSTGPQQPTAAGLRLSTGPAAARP

Like-named read-outs stand apart in the source and are kept apart here.

B1: SA301a HC-G97A (antibody, name in Kabat numbering, V domains shown)
VH: QVQLQESGPGLVKPSQTLSLTCTVSGYSITSDYNSHWIRQPPGKGLEWIGYIHYSGSTNYNPSLKSRVTISRDTSKNQFSLKLSSVTAADTAVYYCARNYASIYVNYFDYWGQGTLVTVSS
VL: EIVLTQSPATLSLSPGERATLSCSASSSVSYMYWYQQKPGQAPRPLIYRTSNLASGIPARFSGSGSGTDFTLTISSLEPEDFAVYYCQQYHSYPTFGGGTKVEIK
notes: IgG1 kappa
On to B1, for which, in the test with human IL-18BP [1], the Kd was found to be 0.44 nM.

B2: SA301a HC-Y100M (antibody, V domains shown)
VH: QVQLQESGPGLVKPSQTLSLTCTVSGYSITSDYNSHWIRQPPGKGLEWIGYIHYSGSTNYNPSLKSRVTISRDTSKNQFSLKLSSVTAADTAVYYCARNYGSIMVNYFDYWGQGTLVTVSS
VL: EIVLTQSPATLSLSPGERATLSCSASSSVSYMYWYQQKPGQAPRPLIYRTSNLASGIPARFSGSGSGTDFTLTISSLEPEDFAVYYCQQYHSYPTFGGGTKVEIK
Regarding B2, the Kd with human IL-18BP [2] stood at 2.07 nM; in the test with cynomolgus IL-18BP, 2.28 nM.

B3: SA301a HC-Y100K (antibody, V domains shown)
VH: QVQLQESGPGLVKPSQTLSLTCTVSGYSITSDYNSHWIRQPPGKGLEWIGYIHYSGSTNYNPSLKSRVTISRDTSKNQFSLKLSSVTAADTAVYYCARNYGSIKVNYFDYWGQGTLVTVSS
VL: EIVLTQSPATLSLSPGERATLSCSASSSVSYMYWYQQKPGQAPRPLIYRTSNLASGIPARFSGSGSGTDFTLTISSLEPEDFAVYYCQQYHSYPTFGGGTKVEIK
As for B3, the Kd stood at 1.49 nM with human IL-18BP [2] and 2.18 nM with cynomolgus IL-18BP.

B4: SA301a HC-Y100E (antibody, V domains shown)
VH: QVQLQESGPGLVKPSQTLSLTCTVSGYSITSDYNSHWIRQPPGKGLEWIGYIHYSGSTNYNPSLKSRVTISRDTSKNQFSLKLSSVTAADTAVYYCARNYGSIEVNYFDYWGQGTLVTVSS
VL: EIVLTQSPATLSLSPGERATLSCSASSSVSYMYWYQQKPGQAPRPLIYRTSNLASGIPARFSGSGSGTDFTLTISSLEPEDFAVYYCQQYHSYPTFGGGTKVEIK
As to B4, the Kd is 0.61 nM in the test with human IL-18BP [2] and 1.64 nM in the test with cynomolgus IL-18BP.

B5: SA301a HC-Y100T (antibody, V domains shown)
VH: QVQLQESGPGLVKPSQTLSLTCTVSGYSITSDYNSHWIRQPPGKGLEWIGYIHYSGSTNYNPSLKSRVTISRDTSKNQFSLKLSSVTAADTAVYYCARNYGSITVNYFDYWGQGTLVTVSS
VL: EIVLTQSPATLSLSPGERATLSCSASSSVSYMYWYQQKPGQAPRPLIYRTSNLASGIPARFSGSGSGTDFTLTISSLEPEDFAVYYCQQYHSYPTFGGGTKVEIK
With B5, the values for the Kd with human IL-18BP [2] and with cynomolgus IL-18BP were 1.08 nM and 4.48 nM, respectively.

B6: SA301a HC-Y100A (antibody, V domains shown)
VH: QVQLQESGPGLVKPSQTLSLTCTVSGYSITSDYNSHWIRQPPGKGLEWIGYIHYSGSTNYNPSLKSRVTISRDTSKNQFSLKLSSVTAADTAVYYCARNYGSIAVNYFDYWGQGTLVTVSS
VL: EIVLTQSPATLSLSPGERATLSCSASSSVSYMYWYQQKPGQAPRPLIYRTSNLASGIPARFSGSGSGTDFTLTISSLEPEDFAVYYCQQYHSYPTFGGGTKVEIK
Regarding B6, the Kd with human IL-18BP [2] stood at 0.88 nM; in the test with cynomolgus IL-18BP, 4.17 nM.

B7: SA301a HC-G97K (antibody, name in Kabat numbering, V domains shown)
VH: QVQLQESGPGLVKPSQTLSLTCTVSGYSITSDYNSHWIRQPPGKGLEWIGYIHYSGSTNYNPSLKSRVTISRDTSKNQFSLKLSSVTAADTAVYYCARNYKSIYVNYFDYWGQGTLVTVSS
VL: EIVLTQSPATLSLSPGERATLSCSASSSVSYMYWYQQKPGQAPRPLIYRTSNLASGIPARFSGSGSGTDFTLTISSLEPEDFAVYYCQQYHSYPTFGGGTKVEIK
notes: IgG1 kappa
Consider B7, for which the Kd with human IL-18BP [1] amounted to 1.46 nM.

B8: SA301a HC-G97L (antibody, name in Kabat numbering, V domains shown)
VH: QVQLQESGPGLVKPSQTLSLTCTVSGYSITSDYNSHWIRQPPGKGLEWIGYIHYSGSTNYNPSLKSRVTISRDTSKNQFSLKLSSVTAADTAVYYCARNYLSIYVNYFDYWGQGTLVTVSS
VL: EIVLTQSPATLSLSPGERATLSCSASSSVSYMYWYQQKPGQAPRPLIYRTSNLASGIPARFSGSGSGTDFTLTISSLEPEDFAVYYCQQYHSYPTFGGGTKVEIK
notes: IgG1 kappa
Turning to B8, the Kd with human IL-18BP [1] stood at 3.7 nM.

B9: SA301a HC-G97I (antibody, name in Kabat numbering, V domains shown)
VH: QVQLQESGPGLVKPSQTLSLTCTVSGYSITSDYNSHWIRQPPGKGLEWIGYIHYSGSTNYNPSLKSRVTISRDTSKNQFSLKLSSVTAADTAVYYCARNYISIYVNYFDYWGQGTLVTVSS
VL: EIVLTQSPATLSLSPGERATLSCSASSSVSYMYWYQQKPGQAPRPLIYRTSNLASGIPARFSGSGSGTDFTLTISSLEPEDFAVYYCQQYHSYPTFGGGTKVEIK
notes: IgG1 kappa
B9: the Kd in the test with human IL-18BP [1] stood at 7.83 nM.

B10: SA301a HC-G97H (antibody, name in Kabat numbering, V domains shown)
VH: QVQLQESGPGLVKPSQTLSLTCTVSGYSITSDYNSHWIRQPPGKGLEWIGYIHYSGSTNYNPSLKSRVTISRDTSKNQFSLKLSSVTAADTAVYYCARNYHSIYVNYFDYWGQGTLVTVSS
VL: EIVLTQSPATLSLSPGERATLSCSASSSVSYMYWYQQKPGQAPRPLIYRTSNLASGIPARFSGSGSGTDFTLTISSLEPEDFAVYYCQQYHSYPTFGGGTKVEIK
notes: IgG1 kappa
On to B10, for which the Kd with human IL-18BP [1] was 1.57 nM.

B11: SA301a HC-G97N (antibody, name in Kabat numbering, V domains shown)
VH: QVQLQESGPGLVKPSQTLSLTCTVSGYSITSDYNSHWIRQPPGKGLEWIGYIHYSGSTNYNPSLKSRVTISRDTSKNQFSLKLSSVTAADTAVYYCARNYNSIYVNYFDYWGQGTLVTVSS
VL: EIVLTQSPATLSLSPGERATLSCSASSSVSYMYWYQQKPGQAPRPLIYRTSNLASGIPARFSGSGSGTDFTLTISSLEPEDFAVYYCQQYHSYPTFGGGTKVEIK
notes: IgG1 kappa
With B11, in the test with human IL-18BP [1], the Kd stood at 5.93 nM.

B12: SA301a HC-G97M (antibody, name in Kabat numbering, V domains shown)
VH: QVQLQESGPGLVKPSQTLSLTCTVSGYSITSDYNSHWIRQPPGKGLEWIGYIHYSGSTNYNPSLKSRVTISRDTSKNQFSLKLSSVTAADTAVYYCARNYMSIYVNYFDYWGQGTLVTVSS
VL: EIVLTQSPATLSLSPGERATLSCSASSSVSYMYWYQQKPGQAPRPLIYRTSNLASGIPARFSGSGSGTDFTLTISSLEPEDFAVYYCQQYHSYPTFGGGTKVEIK
notes: IgG1 kappa
Consider B12, for which, in the test with human IL-18BP [1], the Kd is 0.19 nM.

B13: SA301a HC-G97D (antibody, name in Kabat numbering, V domains shown)
VH: QVQLQESGPGLVKPSQTLSLTCTVSGYSITSDYNSHWIRQPPGKGLEWIGYIHYSGSTNYNPSLKSRVTISRDTSKNQFSLKLSSVTAADTAVYYCARNYDSIYVNYFDYWGQGTLVTVSS
VL: EIVLTQSPATLSLSPGERATLSCSASSSVSYMYWYQQKPGQAPRPLIYRTSNLASGIPARFSGSGSGTDFTLTISSLEPEDFAVYYCQQYHSYPTFGGGTKVEIK
notes: IgG1 kappa
B13: in the test with human IL-18BP [1], the Kd was determined as 0.46 nM.

B14: SA301a HC-G97F (antibody, name in Kabat numbering, V domains shown)
VH: QVQLQESGPGLVKPSQTLSLTCTVSGYSITSDYNSHWIRQPPGKGLEWIGYIHYSGSTNYNPSLKSRVTISRDTSKNQFSLKLSSVTAADTAVYYCARNYFSIYVNYFDYWGQGTLVTVSS
VL: EIVLTQSPATLSLSPGERATLSCSASSSVSYMYWYQQKPGQAPRPLIYRTSNLASGIPARFSGSGSGTDFTLTISSLEPEDFAVYYCQQYHSYPTFGGGTKVEIK
notes: IgG1 kappa
Turning to B14, the Kd in the test with human IL-18BP [1] came to 6.32 nM.

B15: SA301a HC-G97E (antibody, name in Kabat numbering, V domains shown)
VH: QVQLQESGPGLVKPSQTLSLTCTVSGYSITSDYNSHWIRQPPGKGLEWIGYIHYSGSTNYNPSLKSRVTISRDTSKNQFSLKLSSVTAADTAVYYCARNYESIYVNYFDYWGQGTLVTVSS
VL: EIVLTQSPATLSLSPGERATLSCSASSSVSYMYWYQQKPGQAPRPLIYRTSNLASGIPARFSGSGSGTDFTLTISSLEPEDFAVYYCQQYHSYPTFGGGTKVEIK
notes: IgG1 kappa
B15: the Kd in the test with human IL-18BP [1] amounted to 11.6 nM.
